Here are results for eight molecules from patent US20180155451A1 (published 2018).

Assay [1] deals with T1, FcγRIIb extracellular domain with C-terminal His tag (human, UniProt P31994 43-217).
T1 construct: extracellular domain; also called 2b; FcgRIIb
T1 sequence (looked up): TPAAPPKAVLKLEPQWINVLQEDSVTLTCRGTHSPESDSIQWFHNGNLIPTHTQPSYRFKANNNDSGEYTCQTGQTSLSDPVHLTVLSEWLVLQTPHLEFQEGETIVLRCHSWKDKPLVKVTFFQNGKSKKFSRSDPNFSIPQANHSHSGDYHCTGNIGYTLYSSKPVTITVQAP
As to the kind of experiment: SPR, relative to GpH7-A5/GpH7-B3/GpL16-k0. The protocol: (§1) The heterodimerized antibodies He Abs in which one of the H chains was introduced with an alteration were assayed for their binding activities to each activating FcγR and inhibitory FcγR according to the method described in Example 4. […] The activating FcγRs in FIGS. 26, 27, 28, and 29 are FcγRIa, FcγRIIa (R), FcγRIIa (H), and FcγRIIIa, respectively.
(§2) Analysis of interaction between objective antibody and the FcγR was carried out using Biacore T100 (GE Healthcare). HBS-EP+ (GE Healthcare) was used as the running buffer, and the measurement temperature was set to 25° C. Chips produced by immobilizing the antigen peptide by the amine coupling method to a Series S Sencor Chip CM5 (GE Healthcare), or alternatively, chips produced by allowing preliminarily biotinylated antigen peptides to interact with and immobilize onto a Series S Sensor Chip SA (certified) (GE Healthcare) were used. Antibodies of interest were captured onto an antigen peptide-immobilized chip, and allowed to interact to each FcγR diluted with running buffer. To regenerate and repeatedly use the chip, the antibodies captured on the chip were washed off by reacting 10 mM glycine-HCl, pH 1.5.

Assay [2] concerns the target T2, FcγRIIIa extracellular domain with C-terminal His tag (human, UniProt P08637 17-208).
T2 construct: extracellular domain; also called 3a; FcgRIIIa
As to the kind of experiment: SPR, relative to GpH7-A5/GpH7-B3/GpL16-k0. The protocol: as §1, §2
(Surface plasmon resonance follows binding to a sensor surface in real time, without labels.)

T2 sequence (P08637 17-208): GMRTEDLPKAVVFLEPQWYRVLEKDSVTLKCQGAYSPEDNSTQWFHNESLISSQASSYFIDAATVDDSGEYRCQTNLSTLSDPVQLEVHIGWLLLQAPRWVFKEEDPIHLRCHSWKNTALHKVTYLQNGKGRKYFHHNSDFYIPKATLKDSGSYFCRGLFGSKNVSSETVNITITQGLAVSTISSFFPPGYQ

B1: GpH7-A5/GpH7-B3 variant E333_13S/GpL16-k0 (antibody, human IgG1, kappa)
heavy 1: not shown
heavy 2: not shown
light: DIVMTQSPLSLPVTPGEPASISCQASESLVHSNRNTYLHWYLQKPGQSPQLLIYKVSNRFSGVPDRFSGSGSGTDFTLKISRVEAEDVGVYYCSQNTHVPPTFGQGTKVEIERTVAAPSVFIFPPSDEQLKSGTASVVCLLNNFYPREAKVQWKVDNALQSGNSQESVTEQDSKDSTYSLSSTLTLSKADYEKHKVYACEVTHQGLSSPVTKSFNRGEC
notes: He Ab: alteration in one H chain only; also called He Ab
Regarding B1, the He/Con_2b in assay [1] amounted to 81.8 control=100. In assay [2], this molecule had a He/Con_3a of 103 control=100.

B2: GpH7-A5/GpH7-B3 variant I332_01G/GpL16-k0 (antibody, human IgG1, kappa)
heavy 1: not shown
heavy 2: not shown
light: DIVMTQSPLSLPVTPGEPASISCQASESLVHSNRNTYLHWYLQKPGQSPQLLIYKVSNRFSGVPDRFSGSGSGTDFTLKISRVEAEDVGVYYCSQNTHVPPTFGQGTKVEIERTVAAPSVFIFPPSDEQLKSGTASVVCLLNNFYPREAKVQWKVDNALQSGNSQESVTEQDSKDSTYSLSSTLTLSKADYEKHKVYACEVTHQGLSSPVTKSFNRGEC
notes: as for B1
In assay [1], B2 came in with a He/Con_2b of 87.1 control=100. Also, in assay [2], the He/Con_3a is 111 control=100.

B3: GpH7-A5/GpH7-B3 variant E333_20W/GpL16-k0 (antibody, human IgG1, kappa)
heavy 1: not shown
heavy 2: not shown
light: DIVMTQSPLSLPVTPGEPASISCQASESLVHSNRNTYLHWYLQKPGQSPQLLIYKVSNRFSGVPDRFSGSGSGTDFTLKISRVEAEDVGVYYCSQNTHVPPTFGQGTKVEIERTVAAPSVFIFPPSDEQLKSGTASVVCLLNNFYPREAKVQWKVDNALQSGNSQESVTEQDSKDSTYSLSSTLTLSKADYEKHKVYACEVTHQGLSSPVTKSFNRGEC
notes: as for B1
B3: in assay [1], the He/Con_2b came out at 89.5 control=100. The molecule also came in with a He/Con_3a in assay [2] of 101 control=100.

B4: GpH7-A5/GpH7-B3 variant I332_13S/GpL16-k0 (antibody, human IgG1, kappa)
heavy 1: not shown
heavy 2: not shown
light: DIVMTQSPLSLPVTPGEPASISCQASESLVHSNRNTYLHWYLQKPGQSPQLLIYKVSNRFSGVPDRFSGSGSGTDFTLKISRVEAEDVGVYYCSQNTHVPPTFGQGTKVEIERTVAAPSVFIFPPSDEQLKSGTASVVCLLNNFYPREAKVQWKVDNALQSGNSQESVTEQDSKDSTYSLSSTLTLSKADYEKHKVYACEVTHQGLSSPVTKSFNRGEC
notes: as for B1
B4: in assay [1], the He/Con_2b is 98.4 control=100. Besides, in assay [2], the He/Con_3a was determined as 104 control=100.

B5: GpH7-A5/GpH7-B3 variant Q295_02A/GpL16-k0 (antibody, human IgG1, kappa)
heavy 1: not shown
heavy 2: not shown
light: DIVMTQSPLSLPVTPGEPASISCQASESLVHSNRNTYLHWYLQKPGQSPQLLIYKVSNRFSGVPDRFSGSGSGTDFTLKISRVEAEDVGVYYCSQNTHVPPTFGQGTKVEIERTVAAPSVFIFPPSDEQLKSGTASVVCLLNNFYPREAKVQWKVDNALQSGNSQESVTEQDSKDSTYSLSSTLTLSKADYEKHKVYACEVTHQGLSSPVTKSFNRGEC
notes: as for B1
Consider B5, for which the He/Con_2b in assay [1] is 79.7 control=100. In addition, the He/Con_3a in assay [2] came out at 106 control=100.

B6: GpH7-A5/GpH7-B3 variant L234_04F/GpL16-k0 (antibody, human IgG1, kappa)
heavy 1: not shown
heavy 2: not shown
light: DIVMTQSPLSLPVTPGEPASISCQASESLVHSNRNTYLHWYLQKPGQSPQLLIYKVSNRFSGVPDRFSGSGSGTDFTLKISRVEAEDVGVYYCSQNTHVPPTFGQGTKVEIERTVAAPSVFIFPPSDEQLKSGTASVVCLLNNFYPREAKVQWKVDNALQSGNSQESVTEQDSKDSTYSLSSTLTLSKADYEKHKVYACEVTHQGLSSPVTKSFNRGEC
notes: as for B1
B6 returned a He/Con_2b in assay [1] of 99.8 control=100. In assay [2], the He/Con_3a amounted to 118 control=100.

B7: GpH7-A5/GpH7-B3 variant E333_16H/GpL16-k0 (antibody, human IgG1, kappa)
heavy 1: not shown
heavy 2: not shown
light: DIVMTQSPLSLPVTPGEPASISCQASESLVHSNRNTYLHWYLQKPGQSPQLLIYKVSNRFSGVPDRFSGSGSGTDFTLKISRVEAEDVGVYYCSQNTHVPPTFGQGTKVEIERTVAAPSVFIFPPSDEQLKSGTASVVCLLNNFYPREAKVQWKVDNALQSGNSQESVTEQDSKDSTYSLSSTLTLSKADYEKHKVYACEVTHQGLSSPVTKSFNRGEC
notes: as for B1
In assay [1], B7 returned a He/Con_2b of 83.3 control=100. In assay [2], this molecule yielded a He/Con_3a of 103 control=100.

B8: GpH7-A5/GpH7-B3 variant I332_19Q/GpL16-k0 (antibody, human IgG1, kappa)
heavy 1: not shown
heavy 2: not shown
light: DIVMTQSPLSLPVTPGEPASISCQASESLVHSNRNTYLHWYLQKPGQSPQLLIYKVSNRFSGVPDRFSGSGSGTDFTLKISRVEAEDVGVYYCSQNTHVPPTFGQGTKVEIERTVAAPSVFIFPPSDEQLKSGTASVVCLLNNFYPREAKVQWKVDNALQSGNSQESVTEQDSKDSTYSLSSTLTLSKADYEKHKVYACEVTHQGLSSPVTKSFNRGEC
notes: as for B1
Molecule B8 gave a He/Con_2b in assay [1] of 94.3 control=100. Also, the He/Con_3a in assay [2] is 110 control=100.
